Laboratory results reported in the supplement of paper PMC9112550, “Optimization of the antimicrobial peptide Bac7 by deep mutational scanning” (BMC Biology, 2022).

system: Escherichia coli TOP10; assay: shrunken log2 fold change of peptide-encoding DNA abundance (4.5 h post-induction vs induction); higher = less antimicrobial activity (less host growth inhibition); conditions: time post-induction: 4.5 h; library: site-saturation at positions 5, 18, 19, 20
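Also: peptides expressed intracellularly from a pBAD plasmid library in pooled LB shake-flask culture, induced with 0.3% L-arabinose, DNA abundance read by NGS, three biological replicates, DESeq2 with apeglm shrinkage.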

| Sequence | shrunken log2 fold change |
| --- | --- |
| RRIRLRPPRLPRPRPRPRFEPRP | 0.529 |
| RRIRWRPPRLPRPRPRPTCNPRP | 0.0836 |
| RRIRERPPRLPRPRPRPANPPRP | -0.0315 |
| RRIRQRPPRLPRPRPRPVLRPRP | -0.027 |
| RRIRGRPPRLPRPRPRPYPRPRP | 0.162 |
| RRIRSRPPRLPRPRPRPQAYPRP | 0.0251 |
| RRIRTRPPRLPRPRPRPMGYPRP | 0.0627 |
| RRIRSRPPRLPRPRPRPWPMPRP | -0.111 |
| RRIRLRPPRLPRPRPRPDFIPRP | -0.295 |
| RRIRDRPPRLPRPRPRPPKAPRP | -0.122 |
| RRIRRRPPRLPRPRPRPVYYPRP | -0.223 |
| RRIRSRPPRLPRPRPRPEQFPRP | 0.0895 |
| RRIRTRPPRLPRPRPRPQRWPRP | 0.137 |
| RRIRARPPRLPRPRPRPMCNPRP | 0.186 |
| RRIRMRPPRLPRPRPRPFGMPRP | -0.0241 |
| RRIRSRPPRLPRPRPRPKGNPRP | -0.144 |
| RRIRTRPPRLPRPRPRPKITPRP | -0.464 |
| RRIRLRPPRLPRPRPRPDSFPRP | -0.0169 |
| RRIRKRPPRLPRPRPRPYIRPRP | -0.018 |
| RRIRRRPPRLPRPRPRPDWGPRP | 0.157 |

| Sequence | shrunken log2 fold change |
| --- | --- |
| RRIRTRPPRLPRPRPRPTYVPRP | -0.163 |
| RRIRSRPPRLPRPRPRPGWTPRP | -0.0313 |
| RRIRHRPPRLPRPRPRPLGSPRP | 0.0703 |
| RRIRRRPPRLPRPRPRPQRSPRP | 0.302 |
| RRIRHRPPRLPRPRPRPIPLPRP | -0.193 |
| RRIRKRPPRLPRPRPRPTCCPRP | 0.0692 |
| RRIRSRPPRLPRPRPRPACWPRP | 0.523 |
| RRIRCRPPRLPRPRPRPTGFPRP | -0.135 |
| RRIRYRPPRLPRPRPRPVYMPRP | -1.34 |
| RRIRNRPPRLPRPRPRPGFYPRP | 0.00223 |
| RRIRHRPPRLPRPRPRPQFCPRP | -0.208 |
| RRIRVRPPRLPRPRPRPNCRPRP | -0.0746 |
| RRIRCRPPRLPRPRPRPLQCPRP | -0.279 |
| RRIRYRPPRLPRPRPRPGMFPRP | -0.524 |
| RRIRHRPPRLPRPRPRPGWEPRP | 0.274 |
| RRIRVRPPRLPRPRPRPKDAPRP | 0.0211 |
| RRIRTRPPRLPRPRPRPKNLPRP | -0.143 |
| RRIRARPPRLPRPRPRPTNNPRP | 0.00693 |
| RRIRDRPPRLPRPRPRPNTGPRP | -0.098 |
| RRIRWRPPRLPRPRPRPTAFPRP | 0.276 |

| Sequence | shrunken log2 fold change |
| --- | --- |
| RRIRDRPPRLPRPRPRPDPAPRP | 0.304 |
| RRIRNRPPRLPRPRPRPRHEPRP | -0.0217 |
| RRIRGRPPRLPRPRPRPTVHPRP | 1.77 |
| RRIRGRPPRLPRPRPRPYDAPRP | -0.317 |
| RRIRRRPPRLPRPRPRPTAWPRP | 0.288 |
| RRIRWRPPRLPRPRPRPTQKPRP | 0.482 |
| RRIRDRPPRLPRPRPRPEACPRP | 0.644 |
| RRIRWRPPRLPRPRPRPVLEPRP | 0.227 |
| RRIRGRPPRLPRPRPRPVNIPRP | 0.145 |
| RRIRARPPRLPRPRPRPQVMPRP | -0.00224 |
| RRIRERPPRLPRPRPRPYPIPRP | 0.113 |
| RRIRQRPPRLPRPRPRPCIRPRP | -0.0303 |
| RRIRARPPRLPRPRPRPRSSPRP | 0.188 |
| RRIRSRPPRLPRPRPRPIDCPRP | -1.27 |
| RRIRWRPPRLPRPRPRPWMAPRP | 0.0321 |
| RRIRWRPPRLPRPRPRPDKDPRP | -0.365 |
| RRIRARPPRLPRPRPRPFTGPRP | -0.00992 |
| RRIRMRPPRLPRPRPRPLQPPRP | 0.737 |
| RRIRYRPPRLPRPRPRPVAMPRP | -0.464 |
| RRIRVRPPRLPRPRPRPDVCPRP | 0.0951 |
